{"source": "paper PMC2659241", "about": "(The Journal of Biological Chemistry, 2009)", "target": "Recombinant human moesin FERM domain (human, UniProt P26038 2-295)", "sequence (P26038 2-295)": "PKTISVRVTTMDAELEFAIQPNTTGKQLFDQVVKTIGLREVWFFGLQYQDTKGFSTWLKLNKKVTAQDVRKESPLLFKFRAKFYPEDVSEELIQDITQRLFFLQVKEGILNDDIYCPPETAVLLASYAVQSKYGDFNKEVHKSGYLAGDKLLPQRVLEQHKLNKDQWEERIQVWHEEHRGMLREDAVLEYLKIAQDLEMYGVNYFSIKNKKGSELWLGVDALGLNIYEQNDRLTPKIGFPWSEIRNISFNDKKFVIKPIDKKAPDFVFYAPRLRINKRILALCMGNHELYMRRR", "experiment": "cross-linking"}
{"binder": "RRLKKGKKSKRSMNDPY", "note": "[L-selectin cytoplasmic tail peptide]", "values": [{"measurement": "stoichiometry N", "result": 1}]}
